The text below walks through data of IntAct's records for PubMed 19262567.

In assay [1] the target is if4e_human EIF4E (UniProt P06730).
For assay [2] the target is unchanged. This is another data set of the same source.

Sequence of if4e_human EIF4E (P06730 whole entry): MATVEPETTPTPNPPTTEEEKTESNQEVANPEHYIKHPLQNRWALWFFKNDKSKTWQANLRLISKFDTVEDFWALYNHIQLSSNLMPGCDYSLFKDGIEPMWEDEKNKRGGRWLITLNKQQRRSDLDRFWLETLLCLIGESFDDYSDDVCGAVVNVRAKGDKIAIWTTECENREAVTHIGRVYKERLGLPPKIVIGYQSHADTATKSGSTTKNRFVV

Consider “Leucine-rich PPR motif-containing protein, mitochondrial (Homo sapiens) (from UniProt P42704) Y441A”, for which the “effect of a mutation on the interaction” value in assay [1] is on record as “disrupting interaction”.
Consider “Leucine-rich PPR motif-containing protein, mitochondrial (Homo sapiens) (from UniProt P42704) Y583A”, for which, in assay [2], the “effect of a mutation on the interaction” value was “disrupting interaction”.
